Data taken from paper PMC11077774.

B1: full-length GTP-bound Rab6a/Q72L with N-terminal GST tag [human] / BicD2-CTD (C-terminal cargo-binding domain of human Bicaudal D2, residues 715-804) [human] (parent)
chain 1: YENEKAMVTETMMKLRNELKALKEDAATFSSLRAMFATRCDEYITQLDEMQRQLAAAEDEKKTLNSLLRMAIQQKLALTQRLELLELDHE
chain 2: MSTGGDFGNPLRKFKLVFLGEQSVGKTSLITRFMYDSFDNTYQATIGIDFLSKTMYLEDRTVRLQLWDTAGLERFRSLIPSYIRDSTVAVVVYDITNVNSFQQTTKWIDDVRTERGSDVIIMLVGNKTDLADKRQVSIEEGERKAKELNVMFIETSAKAGYNVKQLFRRVAAALPGMESTQDRSREDMIDIKLEKPQEQPVSEGGCSC

Variants of: B1
Assay: GST pull-down, SDS-PAGE band quantification
Conditions: with BicD2-CTD (C-terminal cargo-binding domain of human Bicaudal D2, residues 715-804) [human]; parent: 1; read off a plot

Variant	ratio to parent
chain 2 T45A	0.01
chain 2 S23A	0.96
chain 2 T69A	0.07
chain 2 W67A	0.09
chain 2 F38A	0.01
chain 2 Q22A	0.97
